One block for each molecule: values may come before it.
Columns and labels:
Mgm1 (truncated s-Mgm1) = target: T1, Mgm1 (truncated s-Mgm1) (Thermochaetoides thermophila, UniProt G0SGC7); assay: isothermal titration calorimetry; assay type: binding
T1 sequence (G0SGC7 219-912): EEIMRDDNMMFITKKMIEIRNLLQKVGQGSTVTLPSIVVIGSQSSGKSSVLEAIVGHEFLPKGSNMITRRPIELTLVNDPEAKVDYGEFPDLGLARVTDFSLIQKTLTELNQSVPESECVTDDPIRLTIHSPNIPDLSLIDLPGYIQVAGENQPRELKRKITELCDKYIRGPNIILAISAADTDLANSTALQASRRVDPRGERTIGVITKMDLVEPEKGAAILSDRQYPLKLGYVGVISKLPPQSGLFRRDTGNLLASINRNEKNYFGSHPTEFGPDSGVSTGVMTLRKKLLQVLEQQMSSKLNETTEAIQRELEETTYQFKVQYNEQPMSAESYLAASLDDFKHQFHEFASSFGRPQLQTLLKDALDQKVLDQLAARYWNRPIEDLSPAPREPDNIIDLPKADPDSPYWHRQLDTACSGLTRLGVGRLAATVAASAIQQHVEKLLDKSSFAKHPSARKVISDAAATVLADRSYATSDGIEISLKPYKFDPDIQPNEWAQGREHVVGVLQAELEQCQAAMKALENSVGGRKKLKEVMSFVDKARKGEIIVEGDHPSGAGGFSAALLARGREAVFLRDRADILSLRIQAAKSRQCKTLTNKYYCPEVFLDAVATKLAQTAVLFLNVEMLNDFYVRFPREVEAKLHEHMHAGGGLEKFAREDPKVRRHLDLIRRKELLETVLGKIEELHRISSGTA

AUC = target: the molecule itself; assay: AUC
crystal structure = target: the molecule itself; assay: crystal structure

- Kd (Mgm1 (truncated s-Mgm1)): 9 ± 3 µM
Molecule: Nc1nc2c(ncn2[C@@H]2O[C@H](COP(=O)(O)OP(=O)(O)OP(O)(O)=S)[C@@H](O)[C@H]2O)c(=O)[nH]1 [GTPγS]

B1: Chaetomium thermophilum Mgm1 (amino acids 219-912), truncated s-Mgm1 isoform (domain or fragment, UniProt G0SGC7 219-912, looked up)
chain: T1 sequence (G0SGC7 219-912)
- Kd (AUC): 1 µM

B2: Seleno-methionine substituted Chaetomium thermophilum Mgm1 (amino acids 219-912) (domain or fragment, UniProt G0SGC7 219-912, looked up)
chain: T1 sequence (G0SGC7 219-912)
modifications: seleno-methionine substituted for methionine
- binding result (crystal structure): binds
